Source: patent publication US20220177587A1, “METHODS AND USES OF VARIANT CD80 FUSION PROTEINS AND RELATED CONSTRUCTS” (Alpine Immune Sciences, Inc., priority 2018, published 2022)

Experiments:
huPD-L1 = huPD-L1 (Homo sapiens, UniProt Q9NZQ7); assay: Flow binding to CHO cells stably expressing PD-L1; set-up: huCTLA4 and huPD-L1, full-length mammalian surface expression constructs were generated; expressed in transfected cells; host or cells: CHO cells, lentiviral transduction, sorted to >98% purity; conditions: for PD-L1 MFI at 33.3 nM: CHO cells stably expressing PD-L1; for PD-L1 Fold change to WT CD80: MFI at 33.3 nM relative to CD80 WT IgV-Fc; for Ratio of PDL1:CD28: ratio of MFI at 33.3 nM
Description: (§1) Binding of selected immunomodulatory fusion proteins to cognate binding partners was assessed. […] Cells were sorted in a Bio-Rad S3 Cell Sorter (Bio-Rad Corp., USA) to >98% purity. Jurkat/IL2 reporter cells, which endogenously express CD28, were used to detect binding to CD28.
(§2) For staining and analysis by flow cytometry, 100,000 cells of appropriate transfected cells were plated in 96-well round bottom plates. Cells were spun down and resuspended in staining buffer (phosphate buffered saline (PBS), 1% bovine serum albumin (BSA), and 0.1% sodium azide) for 20 minutes to block non-specific binding. […] Primary staining was performed on ice for 45 minutes, before washing cells in staining buffer twice. Phycoerythrin (PE)-conjugated anti-human Fc (Jackson ImmunoResearch, USA) was diluted 1:150, added to cells and incubated another 30 minutes on ice. Cells were then washed twice with 150 μL/well stain buffer, fixed in 2% formaldehyde/PBS, and analyzed on Intellicyt flow cytometer (Intellicyt Corp., USA). PE Mean Fluorescence Intensity (MFI) was calculated for each cell type with FlowJo Version 10 software (FlowJo LLC, USA).
(§3) Binding assays were carried out to assess the specificity and affinity of multivalent proteins to cell-expressed CTLA-4, CD28, and PD-L1 counter structures.
(§4) The EC50 for binding also was determined.

CD28 [1] = molecular target: T1, CD28 (Homo sapiens, UniProt P10747); assay: Jurkat/IL2 + CHO/OKT3 +/- PD-L1 reporter assay: PD-L1-dependent CD28 costimulation; type: cell-based; set-up: host or cells: Jurkat cells expressing an IL-2-luciferase reporter; conditions: Jurkat/IL2 + CHO/OKT3/PD-L1
Description: Jurkat cells were then plated at 50 μL/well for a total of 100,000 cells per well.
To each well, 25 μL of test protein was added to the Jurkat cells. […] The Jurkat cells with test or control proteins were incubated for 15 minutes at room temperature. CHO-derived artificial antigen presenting cells (aAPC) displaying transduced cell surface anti-CD3 single chain Fv (OKT3) (i.e., no PD-L1), or OKT3 and PD-L1 (i.e., +PD-L1), were brought to 0.8×10^6 cells/mL, and 25 μL of cells were added to each well, bringing the final volume of each well to 100 μL. […] Jurkat cells and CHO cells were incubated for 5 hours at 37 degrees Celsius in a humidified 5% CO2 incubation chamber. Plates were then removed from the incubator and acclimated to room temperature for 15 minutes. 100 μL of a cell lysis and luciferase substrate solution (BioGlo luciferase reagent, Promega) were added to each well and the plates were incubated on an orbital shaker for 10 minutes. Luminescence was measured with a 1 second per well integration time using a BioTek Cytation luminometer, and a relative luminescence value (RLU) was determined for each test sample.

huCTLA4 = huCTLA4 (Homo sapiens, UniProt P16410); assay: Flow binding to CHO cells stably expressing CTLA4; set-up: huCTLA4 and huPD-L1, full-length mammalian surface expression constructs were generated; expressed in transfected cells; host or cells: CHO cells, lentiviral transduction, sorted to >98% purity; conditions: for CTLA4 MFI at 33.3 nM: CHO cells stably expressing CTLA4; for CTLA4 Fold change to WT CD80: MFI at 33.3 nM relative to CD80 WT IgV-Fc
Description: as §1, §2, §3, §4

CD28 [2] = molecular target: T1, CD28; assay: Flow binding to Jurkat/IL2 reporter cells (CD28); set-up: host or cells: Jurkat cells expressing an IL-2-luciferase reporter; conditions: for CD28 Fold change to WT CD80: MFI at 33.3 nM relative to CD80 WT IgV-Fc
Description: as §1, §2, §3, §4

[3] = Table E20, Jurkats (CD28), 33.3 nM
[4] = Table E23, CD80 IgV-Fc (inert) at 33.3 nM, Jurkat (CD28)
[5] = Table E23, CD80 IgV-Fc (inert) at 33.3 nM

huCTLA4, sequence (P16410 36-223): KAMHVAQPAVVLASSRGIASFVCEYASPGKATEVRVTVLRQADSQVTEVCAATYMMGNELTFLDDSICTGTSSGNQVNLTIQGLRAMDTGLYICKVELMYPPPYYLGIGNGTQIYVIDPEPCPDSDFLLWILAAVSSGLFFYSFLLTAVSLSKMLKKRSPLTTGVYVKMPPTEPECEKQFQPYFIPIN
huPD-L1, sequence (Q9NZQ7 19-290): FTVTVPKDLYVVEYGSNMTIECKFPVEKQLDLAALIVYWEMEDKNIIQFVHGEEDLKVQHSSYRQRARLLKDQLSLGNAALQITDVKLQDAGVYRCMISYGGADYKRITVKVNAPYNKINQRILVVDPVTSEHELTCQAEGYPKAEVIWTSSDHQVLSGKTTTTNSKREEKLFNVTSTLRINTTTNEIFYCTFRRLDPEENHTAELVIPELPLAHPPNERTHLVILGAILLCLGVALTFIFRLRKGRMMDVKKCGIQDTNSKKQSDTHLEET

A26E/E35D/M47L/A71G/D90G was tested, and the “PD-L1 MFI at 33.3 nM” value (huPD-L1; Table E20, 33.3 nM) was 14550, the “Relative Luciferase Units (RLU), CD80 Conc 5.0 nM” value (shortened to “Relative Luciferase Units (RLU)”) (CD28 [1]; Table E22, CD80 Conc 5.0 nM) was 1132 RLU and the “CTLA4 MFI at 33.3 nM” value (huCTLA4; Table E20, 33.3 nM) was 22127.
With A26E/E35D/M47L/V68M/A71G the “PD-L1 MFI at 33.3 nM” value (huPD-L1; Table E20, 33.3 nM) was 27806, the “Relative Luciferase Units (RLU)” value (CD28 [1]; Table E22, CD80 Conc 5.0 nM) was 1010 RLU and the “CTLA4 MFI at 33.3 nM” value (huCTLA4; Table E20, 33.3 nM) was 24587.
In the case of A26E/E35D/M47L/V68M/A71G/D90G, the “CD28 MFI at 33.3 nM” value (CD28 [2]; [3]) is reported as 2211, the “CD28 Fold change to WT CD80” value (CD28 [2]; Table E20) is reported as 50.4 fold and the “PD-L1 MFI at 33.3 nM” value (huPD-L1; Table E20, 33.3 nM) is reported as 30232. The “PD-L1 Fold change to WT CD80” value (huPD-L1; Table E20) was 693.4 fold, the “Ratio of PDL1:CD28” value (huPD-L1; Table E20) was 13.7 and the “Fold Increase over WT CD80-IgV-Fe” value (CD28 [1]; Table E22, 5.0 nM) was 2.86 fold. For the same substance, the “Relative Luciferase Units (RLU)” value (CD28 [1]; Table E22, CD80 Conc 5.0 nM) was 1117 RLU, the “CTLA4 MFI at 33.3 nM” value (huCTLA4; Table E20, 33.3 nM) was 21749 and the “CTLA4 Fold change to WT CD80” value (huCTLA4; Table E20) was 16.0 fold.
For A26E/E35D/M47L/V68M/D90G, the “CTLA4 MFI at 33.3 nM” value (huCTLA4; Table E20, 33.3 nM) was 26698.
A26E/E35D/V68M/A71G/D90G was tested, and the “CD28 MFI at 33.3 nM” value (CD28 [2]; [3]) was 2102, the “CD28 Fold change to WT CD80” value (CD28 [2]; Table E20) was 47.9 fold and the “PD-L1 MFI at 33.3 nM” value (huPD-L1; Table E20, 33.3 nM) was 26510. The “PD-L1 Fold change to WT CD80” value (huPD-L1; Table E20) was 608.0 fold, the “Ratio of PDL1:CD28” value (huPD-L1; Table E20) was 12.6 and the “Fold Increase over WT CD80-IgV-Fe” value (CD28 [1]; Table E22, 5.0 nM) was 2.34 fold. For the same substance, the “Relative Luciferase Units (RLU)” value (CD28 [1]; Table E22, CD80 Conc 5.0 nM) was 912 RLU, the “CTLA4 MFI at 33.3 nM” value (huCTLA4; Table E20, 33.3 nM) was 23286 and the “CTLA4 Fold change to WT CD80” value (huCTLA4; Table E20) was 17.1 fold.
A26E/M47L/V68M/A71G/D90G was tested, and the “PD-L1 MFI at 33.3 nM” value (huPD-L1; Table E20, 33.3 nM) was 28139 and the “CTLA4 MFI at 33.3 nM” value (huCTLA4; Table E20, 33.3 nM) was 21807.
In the case of “CD80 (E88D/K89R/D90K/A91G/F92Y/K93R) ECD-Fc: variant full CD80 ECD fused to effector human IgG1 Fc (SEQ ID NO:1527)”, the “Jurkat/CD28 MFI at 66.7 nM” value (CD28 [2]; 66.7 nM) is reported as 4049 and the EC50 (CD28 [2]; flow binding, read-out: Jurkat/CD28 EC50) is reported as > 200 nM.
With CD80 WT ECD-Fc the “CD28 MFI at 33.3 nM” value (CD28 [2]; [4]) was 57.8 and the “PD-L1 MFI at 33.3 nM” value (huPD-L1; [5]) was 161.
E35D/M47L/V68M/A71G/D90G was tested, and the “CD28 MFI at 33.3 nM” value (CD28 [2]; [3]) was 3072, the “PD-L1 MFI at 33.3 nM” value (huPD-L1; Table E20, 33.3 nM) was 29377 and the “CTLA4 MFI at 33.3 nM” value (huCTLA4; Table E20, 33.3 nM) was 26007.
Fc Control was tested, and the “CD28 MFI at 33.3 nM” value (CD28 [2]; [3]) was 15.4, the “CD28 MFI at 33.3 nM” value (CD28 [2]; [4]) was 81 and the “PD-L1 MFI at 33.3 nM” value (huPD-L1; Table E19, 33.3 nM) was 44. The “PD-L1 MFI at 33.3 nM” value (huPD-L1; Table E20, 33.3 nM) was 77.1, the “PD-L1 MFI at 33.3 nM” value (huPD-L1; [5]) was 185 and the “CTLA4 MFI at 33.3 nM” value (huCTLA4; Table E19, 33.3 nM) was 52. The “CTLA4 MFI at 33.3 nM” value (huCTLA4; Table E20, 33.3 nM) was 37.9 and the “CTLA4 MFI at 33.3 nM” value (huCTLA4; [5]) was 194.
H18A/A26N/E35D/M47L/V68M/A71G/D90G was tested, and the “CD28 MFI at 33.3 nM” value (CD28 [2]; [4]) was 4913, the “CD28 Fold change to WT CD80” value (CD28 [2]; Table E23) was 48.2 and the “PD-L1 MFI at 33.3 nM” value (huPD-L1; [5]) was 36284. The “PD-L1 Fold change to WT CD80” value (huPD-L1; Table E23) was 219.9, the “Ratio of PDL1:CD28” value (huPD-L1; Table E23) was 7.4 and the “Fold Increase over WT CD80-IgV-Fe” value (CD28 [1]; Table E24, 5.0 nM) was 6.2. The “Relative Luciferase Units (RLU)” value (CD28 [1]; Table E24, 5.0 nM) was 1054 RLU, the “CTLA4 MFI at 33.3 nM” value (huCTLA4; [5]) was 21360 and the “CTLA4 Fold change to WT CD80” value (huCTLA4; Table E23) was 15.4.
In the case of H18A/A26P/E35D/M47L/V68M/A71G/D90G, the “CD28 MFI at 33.3 nM” value (CD28 [2]; [4]) is reported as 4731, the “CD28 Fold change to WT CD80” value (CD28 [2]; Table E23) is reported as 46.4 and the “PD-L1 MFI at 33.3 nM” value (huPD-L1; [5]) is reported as 33436. The “PD-L1 Fold change to WT CD80” value (huPD-L1; Table E23) was 202.6, the “Ratio of PDL1:CD28” value (huPD-L1; Table E23) was 7.1 and the “Fold Increase over WT CD80-IgV-Fe” value (CD28 [1]; Table E24, 5.0 nM) was 5.0. For the same substance, the “Relative Luciferase Units (RLU)” value (CD28 [1]; Table E24, 5.0 nM) was 857 RLU, the “CTLA4 MFI at 33.3 nM” value (huCTLA4; [5]) was 23763 and the “CTLA4 Fold change to WT CD80” value (huCTLA4; Table E23) was 17.2.
H18V/A26R/E35D/M47L/V68M/A71G/D90G was tested, and the “CD28 MFI at 33.3 nM” value (CD28 [2]; [4]) was 9620, the “PD-L1 MFI at 33.3 nM” value (huPD-L1; [5]) was 73166 and the “CTLA4 MFI at 33.3 nM” value (huCTLA4; [5]) was 23151.
With H18V/A26S/E35D/M47L/V68M/A71G/D90G the “CD28 MFI at 33.3 nM” value (CD28 [2]; [4]) was 8063, the “CD28 Fold change to WT CD80” value (CD28 [2]; Table E23) was 79.0 and the “PD-L1 MFI at 33.3 nM” value (huPD-L1; [5]) was 73884. The “PD-L1 Fold change to WT CD80” value (huPD-L1; Table E23) was 447.8, the “Ratio of PDL1:CD28” value (huPD-L1; Table E23) was 9.2 and the “Fold Increase over WT CD80-IgV-Fe” value (CD28 [1]; Table E24, 5.0 nM) was 5.2. For the same substance, the “Relative Luciferase Units (RLU)” value (CD28 [1]; Table E24, 5.0 nM) was 883 RLU, the “CTLA4 MFI at 33.3 nM” value (huCTLA4; [5]) was 24919 and the “CTLA4 Fold change to WT CD80” value (huCTLA4; Table E23) was 18.0.
For H18Y/A26E/E35D/M47L/A71G/D90G, the “Relative Luciferase Units (RLU)” value (CD28 [1]; Table E22, CD80 Conc 5.0 nM) was 1015 RLU.
